Assay results: patent US7645871B2, “Tumor inhibition by modulating sprouty expression of activity” (Michigan State University, priority 2005, dated 2010)

Tests used:
PH3MT cells [1] = assay: AG1478 inhibitor study, cell growth in 0.1% serum; assay type: cell-based, human
Description: For AG1478 inhibitor studies, cells were plated at a density of 5,000 cells per 60 mm-diameter dish in medium containing 0.1% serum, and were allowed to grow in the presence or absence of AG1478 at a concentration of 6 μM. Cell growth was monitored by measuring the number of cells every two days. Each experimental repetition included at least two replicates for each cell strain analyzed.
The activation of Ras oncogenes enables cellular growth in the absence of exogenous growth factors (Medema et al. (1993) Crit. Rev. Oncog. 4; Shields et al. (2000) Trends Cell. Biol. 10: 147-154). To determine if the activity of EGFR is necessary for the growth factor independence of H-Ras-transformed cells, measurements were made to determine the ability of PH3MT cells to grow in the presence of the AG1478 inhibitor, a specific inhibitor of EGFR tyrosine kinase activity (Levitzki et al. (1995) Science 267:1782-1788).

[2] = system: HRas-transformed cells (PH3MT); assay: UV-induced apoptosis assay (AnnexinV-FITC, flow cytometry); assay type: cell-based, human; conditions: Ras-transformed cells treated with AG1478
Description: Apoptosis was detected by staining the cells with AnnexinV-FITC (BD Biosciences, San Jose, Calif.) according to manufacturer's recommendations. Briefly, cells were plated at a density of 2×10^5 cells/60 mm-dish. 16 hours after plating, the cells were irradiated with UV at a dose of 30-60 J/m^2 and incubated at 37° C. under normal culture conditions for varying time periods. Subsequently, the cells were collected, washed twice with AnnexinV binding buffer and incubated with AnnexinV-FITC at room temperature for 15 mins. The cells were also stained with propidium iodide (PI) to distinguish between live and dead cells. AnnexinV-FITC positive cells were determined by flow cytometry under standard conditions. Cells that stained positively for AnnexinV were considered apoptotic, while cells that were positive for both annexinV and PI were not considered apoptotic. All experiments were repeated at least three times. Ras protects NIH3T3 fibroblasts from apoptosis induced by DNA-damage (Franke et al. (2003) Oncogene 22:8983-98). Experiments were conducted to determine whether this effect was produced in an H-Ras-transformed cell strain (PH3MT), which has a higher expression of Spry2 compared to its parental cell strain (MSU-1.1) (FIG. 10A). In these experiments, both MSU-1.1 and PH3MT cells were plated at a density of 2×10^5 cells per dish and allowed to grow overnight. […]

PH3MT cells [3] = assay: Tumorigenicity assay in athymic mice; assay type: in vivo; conditions: one million cells per site s.c., at least 6 months
Description: Cells were assayed for their ability to form tumors in athymic mice as described in Lou et al. (2005) Cancer Res. 65:1007-1017. The mice were examined weekly for tumor growth, and the tumors were removed when they reached 1 cm in diameter. In the absence of tumor formation six months after the injection, the mice were sacrificed.
When these same cell strains were compared for their ability to form tumors in athymic mice (Table 1), the control cell strains (PH3MT-VC and PH3MT-SC) formed 0.5 cm^3 tumors in 21 days (12/12 tumors formed per cell strain).

ERK = assay: EGF-induced activation of ERK (pERK Western blot); assay type: cell-based, human; conditions: serum starved, EGF 100 ng/ml; vs scrambled RNAi strain PH3MT-SC
Description: Whole cell lysates were prepared as described in Lou et al. (2005) Cancer Res. 65:1007-1017. The protein content was quantified with Coomassie protein reagent from Pierce (Rockford, Ill.). Whole cell lysate (50 μg) was separated by SDS-PAGE. The protein was transferred to polyvinylidene fluoride membrane (Millipore, Billerica, Mass.), and immunoblotting was carried out using standard techniques. The signal was detected with the SuperSignal® reagent (Pierce). Antibodies against EGFR, ERK, pERK, c-Cbl, and H-Ras were purchased from Santa Cruz Biotechnology, Inc. (Santa Cruz, Calif.); Sprouty2 from Calbiochem (San Diego, Calif.); Pan-Ras from Cytoskeleton, Inc. (Denver, Colo.) and Ku80 from Serotec (Raleigh, N.C.). The Ku80 protein expression was used as a loading control.
To determine if the expression of Sprouty2 in PH3MT cells was associated with an increase in the activation of the RAS/MAPK cascade, EGF-induced activation of ERK was examined by Western blotting with a phosphorylation-specific antibody.

HRas/c-Cbl = assay: Co-immunoprecipitation of c-Cbl with HRas; assay type: cell-based, human; conditions: PH3MT-2A3 vs control cells, anti-HRas immunoprecipitation
Description: Generally, in experiments employing immunoprecipitation, whole cell lysates (250 μg) were precleared with an appropriate IgG antibody for 30 mins., then incubated with an antibody specific to HRas for 2 hrs., followed by incubation with protein-G for 1 hr. to overnight at 4° C. When an Hras-agarose conjugate was used (Ras-cCbl/CIN85), the lysates were incubated with the agarose conjugate for 3 hrs. to overnight. The immunoprecipitated fraction was washed several times with lysis buffer and assayed by Western blotting. Experiments were generally conducted in replicate, e.g., experiments were repeated 3 to 4 times for those examining Ras-Spry2 and Ras-c-Cbl interactions, and two times for those examining the Ras-CIN85 interaction.

Rac1 = Rac1 activation assay (PAK-CRIB pull-down); assay type: cell-based, human; conditions: PH3MT-SC (endogenous Spry2) vs PH3MT-2A3
Description: Pull-down assays were performed using whole cell lysates (2 mg). The lysates were pulled down with PAK-Cdc42/Rac1 interacting region (CRIB)-conjugated beads from Cytoskeleton (Denver, Colo.) using methods provided by the manufacturer. […] These experiments were repeated 3 times in H-Ras-transformed cells and twice in immortalized fibroblasts.
To determine whether Spry2 plays a role in the activation of Rac1, a Rac1 activation assay was carried out to determine the level of activated Rac1 in control HRas-transformed cells (PH3MT-SC) and in HRas-transformed cells with down regulated Spry2 (PH3MT-2A3).

PH3MT cells [4] = assay: Stress fiber staining (phalloidin); assay type: cell-based, human; conditions: PH3MT-2A3 vs PH3MT-SC
Description: Stress fibers were detected with Alexa-fluor 488 conjugated phalloidin stain from Invitrogen (Carlsbad, Calif.), which was used according to the manufacturer's instructions. Briefly, cells at log phase were fixed in 10% normal buffered formalin solution for 10 mins. The fixed cells were washed twice in phosphate buffered saline (PBS), and then treated with 0.1 Triton X-100 in PBS for 3-5 mins. at room temperature. Subsequently, the cells were incubated with blocking solution (1% BSA in PBS) for 20 mins. at room temperature. Finally, the cells were incubated with phalloidin stain for 30 mins. and analyzed by fluorescent microscopy.
One function of Rac1 is to inhibit stress fiber formation (Burridge et al. (2004) Cell 116(2): 167-179). […] This is consistent with the lower level of Rac1 activation in these cells (FIG. 12B). Accordingly, one assay that can be used to analyze the effects of a compound that affects Spry2 expression or activity is to assay stress fiber formation in the presence and absence or a compound in a cell that can express Rac1.

MDM2 = MDM2 level and Ser166 phosphorylation, Western blot; assay type: cell-based, human; conditions: PH3MT-2A3 vs PH3MT-SC
Description: (§1) Whole cell lysates were prepared as described in Lou et al. ((2005) Cancer Res. 65:1007-1017). Protein concentration was quantified with Coomasie protein reagent from Pierce (Rockford, Ill.). Whole cell lysates (50 μg) were separated by SDS-PAGE. The electrophoresed proteins were transferred to a polyvinylidene fluoride membrane (Millipore, Billerca, Mass.), and immunoblotted using standard techniques. Antibodies against pp 85, p85, c-Cbl, Mdm2, p53 and H-Ras were purchased form Santa Cruz (Santa Cruz, Calif.); Spry2 from Calbiochem (San Diego, Calif.); pAkt and Akt from Cell Signaling (Danver, Mass.) and Ku80 from Serotec (Raleigh, N.C.). Ku80 protein was used as a loading control. Label signals were detected with the SuperSignal reagent (Pierce, Rockford, Ill.).
(§2) The MDM2/p53 pathway plays a critical role in UV-induced apoptosis (Lakin et al. (1999) Oncogene 18(53):7644-7655). Akt phosphorylates MDM2 on serine residue 166, resulting in the stabilization of MDM2 (Ogawara et al. (2002) J. Biol. Chem., 277(24):21843-21850). This enhances the ubiquitination of p53 by MDM2, which is followed by degradation of the p53. […] To test this proposal, the amount of MDM2 phosphorylated at Ser166 was determined in a cell strain with down regulated Spry2 (PH3MT-2A3) and in a control cell strain (PH3MT-SC). […]

p53 = p53 level, Western blot; assay type: cell-based, human; conditions: PH3MT-2A3 vs PH3MT-SC
Description: as §1, §2

Molecule: COc1cc2ncnc(Nc3cccc(Cl)c3)c2cc1OC [AG1478]
- ability of cells to grow in medium with reduced serum (PH3MT cells [1]; PH3MT cells, 0.1% serum, AG1478 6 μM): decrease in the ability of H-Ras-transformed cells to grow in medium with reduced serum
- decrease in growth compared with effect on MSU-1.1 cells (PH3MT cells [1]; PH3MT vs MSU-1.1, AG1478 6 μM, p<0.001): significantly greater than the corresponding effect of the same inhibitor on the MSU-1.1 cells
- number of cells undergoing apoptosis in response to UV radiation [2]: increased the number of Ras-transformed cells undergoing apoptosis

B1: Spry2-shRNA-5: Sprouty2-specific shRNA construct targeting position 492 of the Spry2 coding region; PH3MT-5A3 cell strain was derived with it (nucleic acid)
chain: GATCCCCGCCACTGAGCAAGGAAGATTTCAAGAGAATCTTCCTTGCTCAGTGGCTTTTTGGAAA
- Tumor incidence (ratio of tumors formed to sites injected) (PH3MT cells [3]; cell strain PH3MT-5A3 (derived with Spry2-shRNA-5)): 0/12

B2: Spry2-shRNA-2: Sprouty2-specific shRNA construct targeting position 399 of the Spry2 coding region; PH3MT-2A3 and PH3MT-2B9 cell strains were derived with it (nucleic acid)
chain: GATCCCCGAGACTGCTAGGATCATCCTTCAAGAGAGGAGTGATCCTAGCAGCTCTTTTTGGAAA
- EGF-induced ERK activation (ERK): decreased levels of ERK activation
- Tumor incidence (ratio of tumors formed to sites injected) (PH3MT cells [3]; cell strain PH3MT-2A3 (derived with Spry2-shRNA-2)): 0/12
- Tumor incidence (ratio of tumors formed to sites injected) (PH3MT cells [3]; cell strain PH3MT-2B9 (derived with Spry2-shRNA-2)): 0/12
- binding of endogenous c-Cbl to HRas (HRas/c-Cbl): abolished
- level of active Rac1 (Rac1): significantly higher level of active Rac1, compared to cell strain with down-regulated Spry2 expression
- stress fiber formation (PH3MT cells [4]): more pronounced stress fibers
- level of MDM2 following UV treatment (MDM2): decrease in the level of MDM2 following UV treatment
- level of p53 following UV treatment (p53): higher
